Target: extracellular domain of quail MuSK (amino acid residues 1 to 463), His-tagged (quail)
Experiment: ELISA

signal of the plate assay (read at 415 nm): 0.45
B1: biotinylated recombinant biglycan (non-glycanated form) (ligand)
chain: DEEASGADTSGVLDPDSVTPTYSAMCPFGCHCHLRVVQCSDLGLKSVPKEISPDTTLLDLQNNDISELRKDDFKGLQHLYALVLVNNKISKIHEKAFSPLRKLQKLYISKNHLVEIPPNLPSSLVELRIHDNRIRKVPKGVFSGLRNMNCIEMGGNPLENSGFEPGAFDGLKLNYLRISEAKLTGIPKDLPETLNELHLDHNKIQAIELEDLLRYSKLYRLGLGHNQIRMIENGSLSFLPTLRELHLDNNKLARVPSGLPDLKLLQVVYLHSNNITKVGVNDFCPMGFGVKRAYYNGISLFNNPVPYWEVQPATFRCVTDRLAIQFGNYKK
modifications: biotin (site not stated)

— PMC3313673
